The series relates to Escherichia coli TOP10. Description: shrunken log2 fold change of peptide-encoding DNA abundance (4.5 h post-induction vs induction); higher = less antimicrobial activity (less host growth inhibition). Conditions: time post-induction: 4.5 h; library: site-saturation at positions 5, 18, 19, 20.
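Note: peptides expressed intracellularly from a pBAD plasmid library in pooled LB shake-flask culture, induced with 0.3% L-arabinose, DNA abundance read by NGS, three biological replicates, DESeq2 with apeglm shrinkage.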

With RRIRKRPPRLPRPRPRPHKAPRP, the “shrunken log2 fold change” value is -0.0179.
Regarding RRIRPRPPRLPRPRPRPNGLPRP, the “shrunken log2 fold change” value came to 0.015.
In the case of RRIRFRPPRLPRPRPRPFCFPRP, the “shrunken log2 fold change” value is -0.343.
With RRIRHRPPRLPRPRPRPAITPRP, the “shrunken log2 fold change” value is -0.0845.
With RRIRTRPPRLPRPRPRPEGIPRP, the “shrunken log2 fold change” value was found to be 0.0215.
As to RRIRFRPPRLPRPRPRPTVDPRP, the “shrunken log2 fold change” value was -0.175.
RRIRHRPPRLPRPRPRPWFPPRP: the “shrunken log2 fold change” value is -0.379.
The result for RRIRNRPPRLPRPRPRPFVGPRP reads -0.182; that for RRIRQRPPRLPRPRPRPSGYPRP, -0.0295; that for RRIRLRPPRLPRPRPRPIWFPRP, 0.0419.
For the sequence RRIRGRPPRLPRPRPRPNPWPRP, the “shrunken log2 fold change” value amounted to 0.454.
With RRIRQRPPRLPRPRPRPRRKPRP the figure was 0.192; with RRIRNRPPRLPRPRPRPLCTPRP, -0.194; with RRIRCRPPRLPRPRPRPQAPPRP, 0.211.
As to RRIRKRPPRLPRPRPRPCRHPRP, the “shrunken log2 fold change” value was -0.00769.
On to RRIRTRPPRLPRPRPRPICNPRP, for which the “shrunken log2 fold change” value is -0.00195.
As for RRIRIRPPRLPRPRPRPPIWPRP, the “shrunken log2 fold change” value was -0.00949.
For RRIRYRPPRLPRPRPRPDVGPRP, the “shrunken log2 fold change” value is -0.273.
On to RRIRRRPPRLPRPRPRPVLDPRP, for which the “shrunken log2 fold change” value amounted to 0.402.
The result for RRIRLRPPRLPRPRPRPRKTPRP reads 0.0104.
With RRIRQRPPRLPRPRPRPIWPPRP, the “shrunken log2 fold change” value was -0.0155.
Consider RRIRQRPPRLPRPRPRPQTPPRP, for which the “shrunken log2 fold change” value was 0.0705.
The result for RRIRSRPPRLPRPRPRPDTMPRP reads -0.462; that for RRIRYRPPRLPRPRPRPAACPRP, 0.115; that for RRIRDRPPRLPRPRPRPKQYPRP, -0.839.
With RRIRERPPRLPRPRPRPKYCPRP the figure was -0.368; with RRIRARPPRLPRPRPRPNSDPRP, 0.0804.
The result for RRIRFRPPRLPRPRPRPEYEPRP reads -0.211.
As to RRIRPRPPRLPRPRPRPVAEPRP, the “shrunken log2 fold change” value came out at 0.394.
Regarding RRIRDRPPRLPRPRPRPTVCPRP, the “shrunken log2 fold change” value stood at 0.662.
RRIRVRPPRLPRPRPRPHNMPRP: the “shrunken log2 fold change” value was -0.389.
With RRIRSRPPRLPRPRPRPADYPRP, the “shrunken log2 fold change” value is -0.455.
In the case of RRIRPRPPRLPRPRPRPKPIPRP, the “shrunken log2 fold change” value was 0.035.
RRIRWRPPRLPRPRPRPKDNPRP: the “shrunken log2 fold change” value was -0.00672.
In the case of RRIRQRPPRLPRPRPRPYSQPRP, the “shrunken log2 fold change” value was -0.195.
For the sequence RRIRNRPPRLPRPRPRPHFGPRP, the “shrunken log2 fold change” value was -0.104.
With RRIRTRPPRLPRPRPRPYCHPRP, the “shrunken log2 fold change” value is -0.213.
With RRIRKRPPRLPRPRPRPDMIPRP, the “shrunken log2 fold change” value stood at 0.013.
Consider RRIRPRPPRLPRPRPRPIWPPRP, for which the “shrunken log2 fold change” value stood at 0.302.
With RRIRERPPRLPRPRPRPMCIPRP, the “shrunken log2 fold change” value is -0.133.
The result for RRIRLRPPRLPRPRPRPSYHPRP reads -0.686.
Turning to RRIRDRPPRLPRPRPRPTTQPRP, the “shrunken log2 fold change” value is 0.831.
For RRIRIRPPRLPRPRPRPFNAPRP, the “shrunken log2 fold change” value is -0.551.
As for RRIRNRPPRLPRPRPRPQTYPRP, the “shrunken log2 fold change” value is -0.375.
With RRIRERPPRLPRPRPRPECDPRP, the “shrunken log2 fold change” value was determined as 0.12.
On to RRIRKRPPRLPRPRPRPDCLPRP, for which the “shrunken log2 fold change” value was -0.116.
Consider RRIRTRPPRLPRPRPRPKGTPRP, for which the “shrunken log2 fold change” value was -0.188.
For RRIRFRPPRLPRPRPRPQLCPRP, the “shrunken log2 fold change” value was -0.0465.
With RRIRNRPPRLPRPRPRPVWLPRP the figure was 0.0895; with RRIRLRPPRLPRPRPRPYHKPRP, -0.304.
As for RRIRMRPPRLPRPRPRPGGHPRP, the “shrunken log2 fold change” value turned out to be 0.516.
Take RRIRVRPPRLPRPRPRPIEWPRP: the “shrunken log2 fold change” value is -0.000773.
The result for RRIRKRPPRLPRPRPRPESDPRP reads 0.262.
With RRIRWRPPRLPRPRPRPLGFPRP the figure was 0.239; with RRIRLRPPRLPRPRPRPLHTPRP, -0.289; with RRIRERPPRLPRPRPRPKMTPRP, -0.0406.
With RRIRYRPPRLPRPRPRPAWIPRP, the “shrunken log2 fold change” value was -0.259.
For RRIRDRPPRLPRPRPRPFQLPRP, the “shrunken log2 fold change” value is -0.0537.
Consider RRIRIRPPRLPRPRPRPEYKPRP, for which the “shrunken log2 fold change” value is -0.978.
Consider RRIRSRPPRLPRPRPRPEHKPRP, for which the “shrunken log2 fold change” value is -0.156.
In the case of RRIRRRPPRLPRPRPRPFGLPRP, the “shrunken log2 fold change” value is -0.0905.
With RRIRYRPPRLPRPRPRPWDAPRP the figure was -0.796.
Turning to RRIRVRPPRLPRPRPRPTQRPRP, the “shrunken log2 fold change” value is 0.565.
For the sequence RRIRYRPPRLPRPRPRPYQSPRP, the “shrunken log2 fold change” value turned out to be 0.0169.
The result for RRIRSRPPRLPRPRPRPQDVPRP reads -0.277; that for RRIRERPPRLPRPRPRPAQMPRP, 0.392.
With RRIRNRPPRLPRPRPRPTNPPRP the figure was -0.216; with RRIRDRPPRLPRPRPRPCPAPRP, -0.156; with RRIRQRPPRLPRPRPRPLPWPRP, 0.117.
The result for RRIRWRPPRLPRPRPRPGWRPRP reads 0.617; that for RRIRNRPPRLPRPRPRPKSNPRP, -0.294; that for RRIRIRPPRLPRPRPRPTNRPRP, -0.326.
As to RRIRFRPPRLPRPRPRPVASPRP, the “shrunken log2 fold change” value is 0.0266.
For the sequence RRIRPRPPRLPRPRPRPTYFPRP, the “shrunken log2 fold change” value is -0.179.
On to RRIRIRPPRLPRPRPRPSNNPRP, for which the “shrunken log2 fold change” value was -0.656.
For the sequence RRIRARPPRLPRPRPRPHCRPRP, the “shrunken log2 fold change” value was -0.0687.
Turning to RRIRPRPPRLPRPRPRPQRYPRP, the “shrunken log2 fold change” value was -0.0398.
Turning to RRIRVRPPRLPRPRPRPWNTPRP, the “shrunken log2 fold change” value is -0.878.
Turning to RRIRWRPPRLPRPRPRPVNRPRP, the “shrunken log2 fold change” value is -0.00204.
For the sequence RRIRGRPPRLPRPRPRPKKRPRP, the “shrunken log2 fold change” value is 0.817.
Turning to RRIRDRPPRLPRPRPRPTAGPRP, the “shrunken log2 fold change” value was found to be 0.534.
The result for RRIRWRPPRLPRPRPRPCEEPRP reads 0.0489; that for RRIRERPPRLPRPRPRPTTAPRP, 0.0732.
As to RRIRHRPPRLPRPRPRPDHAPRP, the “shrunken log2 fold change” value stood at 0.0557.
For the sequence RRIRWRPPRLPRPRPRPLDLPRP, the “shrunken log2 fold change” value was determined as 0.00678.
As for RRIRSRPPRLPRPRPRPVLRPRP, the “shrunken log2 fold change” value came out at 0.0904.
Turning to RRIRHRPPRLPRPRPRPQTRPRP, the “shrunken log2 fold change” value was -0.148.
For RRIRSRPPRLPRPRPRPTITPRP, the “shrunken log2 fold change” value is -0.229.
Consider RRIRMRPPRLPRPRPRPMHIPRP, for which the “shrunken log2 fold change” value was determined as 0.0159.
Turning to RRIRYRPPRLPRPRPRPEWHPRP, the “shrunken log2 fold change” value is -0.186.
As to RRIRERPPRLPRPRPRPVSRPRP, the “shrunken log2 fold change” value was determined as 0.23.
For the sequence RRIRPRPPRLPRPRPRPALYPRP, the “shrunken log2 fold change” value is -0.0126.
As for RRIRWRPPRLPRPRPRPICTPRP, the “shrunken log2 fold change” value was 0.537.
With RRIRIRPPRLPRPRPRPEHEPRP the figure was -0.434; with RRIRARPPRLPRPRPRPADFPRP, 0.119; with RRIRNRPPRLPRPRPRPLWWPRP, 0.605.
For RRIRLRPPRLPRPRPRPFKQPRP, the “shrunken log2 fold change” value is -0.0215.
As to RRIRDRPPRLPRPRPRPYNYPRP, the “shrunken log2 fold change” value was -0.27.
As for RRIRYRPPRLPRPRPRPMYKPRP, the “shrunken log2 fold change” value was -0.28.
Take RRIRNRPPRLPRPRPRPNLRPRP: the “shrunken log2 fold change” value was -0.325.
For RRIRRRPPRLPRPRPRPSRLPRP, the “shrunken log2 fold change” value was 0.177.
For the sequence RRIRTRPPRLPRPRPRPNDCPRP, the “shrunken log2 fold change” value was 0.0184.
On to RRIRLRPPRLPRPRPRPMNRPRP, for which the “shrunken log2 fold change” value was -0.0112.
As for RRIRTRPPRLPRPRPRPTICPRP, the “shrunken log2 fold change” value is -0.401.
With RRIRTRPPRLPRPRPRPDSYPRP the figure was -0.0896; with RRIRPRPPRLPRPRPRPMMGPRP, 0.0538; with RRIRMRPPRLPRPRPRPPDQPRP, 2.01.
As to RRIRQRPPRLPRPRPRPMFPPRP, the “shrunken log2 fold change” value is -0.181.
The result for RRIRGRPPRLPRPRPRPWVDPRP reads 0.308.
The result for RRIRLRPPRLPRPRPRPIAMPRP reads -0.0743; that for RRIRNRPPRLPRPRPRPQCMPRP, 2.42.
On to RRIRDRPPRLPRPRPRPLQWPRP, for which the “shrunken log2 fold change” value was determined as 0.219.
For RRIRARPPRLPRPRPRPRSQPRP, the “shrunken log2 fold change” value was found to be 0.00929.
The result for RRIRARPPRLPRPRPRPFGAPRP reads 0.929; that for RRIRKRPPRLPRPRPRPYTRPRP, -0.167; that for RRIRCRPPRLPRPRPRPYRGPRP, -0.992.
In the case of RRIRQRPPRLPRPRPRPIHWPRP, the “shrunken log2 fold change” value was -0.198.
As for RRIRLRPPRLPRPRPRPQSCPRP, the “shrunken log2 fold change” value is 0.123.
On to RRIRSRPPRLPRPRPRPSVLPRP, for which the “shrunken log2 fold change” value was -0.222.
As for RRIRYRPPRLPRPRPRPGKEPRP, the “shrunken log2 fold change” value was 0.0011.
With RRIRRRPPRLPRPRPRPFRCPRP, the “shrunken log2 fold change” value was -0.15.
Consider RRIRQRPPRLPRPRPRPYKGPRP, for which the “shrunken log2 fold change” value is -0.0872.
Regarding RRIRDRPPRLPRPRPRPKPAPRP, the “shrunken log2 fold change” value is 0.278.
As for RRIRTRPPRLPRPRPRPEQGPRP, the “shrunken log2 fold change” value was 0.196.
In the case of RRIRERPPRLPRPRPRPECPPRP, the “shrunken log2 fold change” value is 0.0592.

Source of the values: the supplement of paper PMC9112550, “Optimization of the antimicrobial peptide Bac7 by deep mutational scanning” (BMC Biology, 2022).
